Source: patent publication US20240255495

How the values were obtained:
thrombin = thrombin (UniProt P00734+P00734); test: FP
FOXM1 = target: T1, FOXM1 (UniProt Q08050); details: PS; cited from earlier work
T1 sequence: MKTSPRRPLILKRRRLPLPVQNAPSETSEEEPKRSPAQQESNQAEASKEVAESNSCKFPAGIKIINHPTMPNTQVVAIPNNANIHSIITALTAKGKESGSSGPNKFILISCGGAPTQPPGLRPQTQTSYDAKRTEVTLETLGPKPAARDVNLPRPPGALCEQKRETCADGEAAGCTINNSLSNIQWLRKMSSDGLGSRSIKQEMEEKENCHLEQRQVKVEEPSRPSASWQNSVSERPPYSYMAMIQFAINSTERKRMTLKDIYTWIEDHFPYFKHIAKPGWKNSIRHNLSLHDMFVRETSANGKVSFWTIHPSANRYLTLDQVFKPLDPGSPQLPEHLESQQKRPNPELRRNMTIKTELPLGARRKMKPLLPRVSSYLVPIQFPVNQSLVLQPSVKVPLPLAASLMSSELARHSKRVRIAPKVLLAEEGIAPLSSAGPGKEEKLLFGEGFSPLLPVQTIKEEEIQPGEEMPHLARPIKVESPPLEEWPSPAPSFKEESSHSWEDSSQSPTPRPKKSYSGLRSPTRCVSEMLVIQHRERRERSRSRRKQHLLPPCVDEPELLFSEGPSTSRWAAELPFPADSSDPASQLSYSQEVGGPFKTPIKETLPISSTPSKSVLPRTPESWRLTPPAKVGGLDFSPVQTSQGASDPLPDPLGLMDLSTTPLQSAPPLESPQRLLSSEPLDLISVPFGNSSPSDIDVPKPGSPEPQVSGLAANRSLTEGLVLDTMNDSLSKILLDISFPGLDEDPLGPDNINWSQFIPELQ

GGTTGGTGTGGTTGG [TBA(3)-2b]
Kd (thrombin; T3 replaced by 5-ethynyl-dU clicked to inactivated N-acyl sulfonamide biotin warhead 2b): 395 nM

GGTTGGTGTGGTTGG [TBA(9)-2b]
Kd (thrombin; T9 replaced by 5-ethynyl-dU clicked to inactivated N-acyl sulfonamide biotin warhead 2b): 520 nM

TCACTTCACACCGCATCTCTACGTCCGGTTGCGCTTTCCTTT [FBA]
Kd (FOXM1): 65 nM
